According to the supplement of paper PMC9876800:

System: peptide library, one residue held at a place counted from the S/T acceptor
Assay: relative phosphorylation of the sub-library (ratio to the mean residue at this position); higher = residue favoured
Procedure, shortened: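 Relative sub-library phosphorylation, a ratio to the mean residue at that position, was obtained by phosphorimaging and densitometry of spots on streptavidin membranes. Before capture, purified recombinant kinases were incubated for 90 min under kinase-specific conditions with 50 μM biotinylated degenerate peptide sub-libraries and 50 μM ATP spiked with γ-32P-ATP. Each sub-library fixed one residue at one position around a central Ser/Thr.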

Sequence of BMPR2, construct: aa172-end, human (Q13873 172-1038, looked up): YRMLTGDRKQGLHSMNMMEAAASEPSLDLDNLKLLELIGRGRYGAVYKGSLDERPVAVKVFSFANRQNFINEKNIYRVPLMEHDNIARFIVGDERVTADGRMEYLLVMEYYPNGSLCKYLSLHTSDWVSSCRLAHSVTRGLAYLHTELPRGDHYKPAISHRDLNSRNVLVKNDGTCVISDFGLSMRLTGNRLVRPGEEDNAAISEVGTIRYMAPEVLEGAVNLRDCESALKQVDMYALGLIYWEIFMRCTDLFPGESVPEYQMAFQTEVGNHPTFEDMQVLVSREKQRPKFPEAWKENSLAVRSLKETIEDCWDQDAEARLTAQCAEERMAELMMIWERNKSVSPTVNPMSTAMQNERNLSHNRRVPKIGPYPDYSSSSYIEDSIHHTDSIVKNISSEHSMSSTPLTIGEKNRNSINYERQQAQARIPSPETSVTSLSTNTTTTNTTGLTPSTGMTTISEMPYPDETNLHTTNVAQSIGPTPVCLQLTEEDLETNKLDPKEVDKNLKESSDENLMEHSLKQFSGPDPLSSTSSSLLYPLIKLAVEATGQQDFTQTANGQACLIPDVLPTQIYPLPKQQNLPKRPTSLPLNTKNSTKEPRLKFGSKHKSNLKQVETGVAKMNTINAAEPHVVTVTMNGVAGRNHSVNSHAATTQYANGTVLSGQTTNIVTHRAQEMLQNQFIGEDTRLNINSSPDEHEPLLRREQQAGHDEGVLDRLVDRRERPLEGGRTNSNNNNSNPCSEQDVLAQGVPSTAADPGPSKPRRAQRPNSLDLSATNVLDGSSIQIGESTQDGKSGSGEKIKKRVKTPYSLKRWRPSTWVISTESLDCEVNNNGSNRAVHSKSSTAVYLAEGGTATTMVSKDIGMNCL
Sequence of BMPR1A, construct: aa187-end, human (P36894 187-532, looked up): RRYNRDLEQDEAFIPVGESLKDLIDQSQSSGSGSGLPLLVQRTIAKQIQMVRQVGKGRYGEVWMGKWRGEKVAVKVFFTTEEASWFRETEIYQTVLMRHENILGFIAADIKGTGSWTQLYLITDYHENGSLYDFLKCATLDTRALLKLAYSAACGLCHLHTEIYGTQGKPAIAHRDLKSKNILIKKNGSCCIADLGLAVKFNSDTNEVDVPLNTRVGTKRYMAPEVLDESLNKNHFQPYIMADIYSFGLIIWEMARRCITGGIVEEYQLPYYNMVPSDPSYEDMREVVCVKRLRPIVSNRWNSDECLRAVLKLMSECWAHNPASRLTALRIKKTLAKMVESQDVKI

BMPR2, construct: aa172-end, human (from UniProt Q13873)
relative phosphorylation
Conditions	at +1	at +2	at +3	at +4	at -1	at -2	at -3	at -4	at -5
A fixed	0.89	1	0.941	0.96	0.845	0.887	0.99	1.11	1.08
D fixed	0.946	1.13	0.871	0.94	0.963	1.86	1.24	1.1	1.08
E fixed	1.08	1.08	0.844	0.951	0.944	1.91	1.19	1.18	1.04
F fixed	0.929	0.88	0.927	0.94	1.1	0.825	0.977	0.973	1.06
G fixed	0.969	1.04	1.1	1.02	0.839	1.05	1.08	1.01	1.06
H fixed	1.1	1.04	1.03	1	1.01	0.904	1.08	0.978	0.96
I fixed	1.02	0.889	0.92	0.868	0.862	0.728	0.892	0.911	0.971
K fixed	0.831	1.03	1.04	1.1	0.822	0.791	0.835	0.935	0.913
L fixed	1.04	0.905	0.934	0.935	1.1	0.786	0.869	0.928	0.913
M fixed	1.15	0.989	0.93	0.943	1.24	0.797	0.955	0.936	0.895
N fixed	1.02	0.987	1.01	0.963	0.968	1.05	1.03	0.938	0.898
P fixed	0.724	1.02	1.17	1.08	0.738	0.809	0.965	1.09	0.948
Q fixed	1.04	1.01	0.949	0.973	0.986	1.15	1.04	0.919	0.861
R fixed	0.933	1	1.22	1.18	0.905	0.816	0.873	0.867	0.956
V fixed	0.999	0.972	0.989	0.926	1.03	0.822	0.862	0.979	1.01
W fixed	1.1	0.94	0.998	1.16	1.24	0.855	1.03	1.05	1.18
Y fixed	1.24	1.1	1.12	1.05	1.4	0.95	1.11	1.09	1.18
pThr fixed	1.02	1.04	0.847	0.873	0.862	0.993	1.15	1.08	0.979
pTyr fixed	0.907	0.891	0.883	0.86	1.56	1.06	1.34	1.1	1.07

BMPR1A, construct: aa187-end, human (from UniProt P36894)
relative phosphorylation
Conditions	at +1	at +2	at +3	at +4	at -1	at -2	at -3	at -4	at -5
A fixed	0.574	0.952	0.911	0.854	0.648	0.721	0.791	0.912	0.982
D fixed	2.03	1.24	1.79	1.3	1.72	1.97	2.32	2.47	1.88
E fixed	6.79	1.52	1.55	1.31	1.95	7.73	2.92	1.81	1.65
F fixed	0.398	0.622	0.89	0.889	0.797	0.384	0.65	0.792	0.807
G fixed	0.58	1.89	0.941	1	0.483	0.579	0.948	0.958	0.93
H fixed	0.431	1.25	0.889	1.06	0.983	0.483	0.826	0.987	1.02
I fixed	0.677	0.554	1.01	1.01	0.809	0.432	0.662	0.781	0.83
K fixed	0.335	0.803	0.498	0.738	0.587	0.351	0.564	0.741	0.86
L fixed	0.417	0.613	0.926	0.797	1.17	0.453	0.649	0.701	0.802
M fixed	0.57	0.721	0.85	0.922	1.67	0.462	0.859	0.808	0.791
N fixed	0.668	0.776	0.793	0.946	1.01	0.693	1.24	1.08	1.22
P fixed	0.265	1.31	0.936	0.964	0.466	0.401	0.74	0.775	0.699
Q fixed	0.644	0.735	0.729	0.931	1.13	0.659	1.02	0.892	0.908
R fixed	0.314	0.691	0.478	0.767	0.555	0.395	0.636	0.718	0.886
V fixed	1.47	0.632	1.13	0.961	1.23	0.545	0.731	0.887	0.832
W fixed	0.421	1.14	1.46	1.38	0.77	0.392	0.676	0.887	0.965
Y fixed	0.417	1.55	1.21	1.18	1.02	0.349	0.755	0.791	0.928
pThr fixed	5.36	1.98	1.01	1.31	1.08	1.66	2.19	1.53	1.46
pTyr fixed	1.09	0.876	1.35	1.22	1.54	0.763	1.55	1.09	1.42
